# What was measured:
# [1] = biological target: PEG7-Octyl-Salmon Calcitonin, Diconjugate (salmon) (UniProt P01263)
# [2] = biological target: salmon calcitonin (salmon) (UniProt P01263)
# [3] = biological target: PEG7-Octyl-Salmon Calcitonin, Diconjugate (salmon) (UniProt P01263); remark: listed apart in the source
# [4] = biological target: salmon calcitonin (salmon) (UniProt P01263); remark: listed apart in the source
"% Remaining Following 0.5 U/mL Chymotrypsin Digest (60 min, non-formulated) [1]","% Remaining Following 0.5 U/mL Chymotrypsin Digest (60 min, non-formulated) [2]","% Remaining following 1 U/mL Trypsin Digest (180 min, non-formulated) [3]","% Remaining following 1 U/mL Trypsin Digest (180 min, non-formulated) [4]",Substance
6 % remaining,5 % remaining,,,Chymotrypsin (enzyme)
,,61 % remaining,31 % remaining,Trypsin (enzyme)

# Reference: patent US20090281023A9
